Data published in patent US20150125454A1 (Daiichi Sankyo, published 2015).

Target: human FGFR2 IIIc variant protein (isoform 1: NP-000132) (human, UniProt P21802 22-821)
Experiment: flow cytometry (MFI) on transfected HEK293T cells, hybridoma supernatant; non-binding implied by 'selectively', values only in FIG. 1
Description: Each human FGFR expression vector constructed in Examples 1)-3-1 and 2)-1-1 was transfected to HEK293T cells by the method shown in Example 1)-5-1. The cell suspension was centrifuged to remove the supernatant. Then, these various human FGFR expression vector-transfected HEK293T cells and the pcDNA-DEST40-transfected HEK293T cells were separately suspended by the addition of the hybridoma culture supernatant containing the FR2-10, FR2-13, or FR2-14 antibody and left standing at 4° C. for 1 hour. The cells were washed twice with PBS containing 5% FBS, then suspended by the addition of Anti-Rat IgG FITC conjugate (manufactured by Sigma-Aldrich Corp.) diluted 320-fold with PBS containing 5% FBS, and left standing at 4° C. for 1 hour. The cells were washed 3 times with PBS containing 5% FBS and then resuspended in PBS containing 5% FBS and 2 μg/ml 7-aminoactinomycin D (manufactured by Molecular Probes, Inc.), followed by detection using a flow cytometer (FC500; manufactured by Beckman Coulter Inc.). The data was analyzed using Flowjo (manufactured by Tree Star Inc.). After removal of 7-aminoactinomycin D-positive dead cells by gating, the FITC fluorescence intensity of live cells was plotted to a histogram to calculate average fluorescence intensity (MFI).

Sequence of human FGFR2 IIIc variant protein (isoform 1: NP-000132) (P21802 22-821 limits assumed, change not shown): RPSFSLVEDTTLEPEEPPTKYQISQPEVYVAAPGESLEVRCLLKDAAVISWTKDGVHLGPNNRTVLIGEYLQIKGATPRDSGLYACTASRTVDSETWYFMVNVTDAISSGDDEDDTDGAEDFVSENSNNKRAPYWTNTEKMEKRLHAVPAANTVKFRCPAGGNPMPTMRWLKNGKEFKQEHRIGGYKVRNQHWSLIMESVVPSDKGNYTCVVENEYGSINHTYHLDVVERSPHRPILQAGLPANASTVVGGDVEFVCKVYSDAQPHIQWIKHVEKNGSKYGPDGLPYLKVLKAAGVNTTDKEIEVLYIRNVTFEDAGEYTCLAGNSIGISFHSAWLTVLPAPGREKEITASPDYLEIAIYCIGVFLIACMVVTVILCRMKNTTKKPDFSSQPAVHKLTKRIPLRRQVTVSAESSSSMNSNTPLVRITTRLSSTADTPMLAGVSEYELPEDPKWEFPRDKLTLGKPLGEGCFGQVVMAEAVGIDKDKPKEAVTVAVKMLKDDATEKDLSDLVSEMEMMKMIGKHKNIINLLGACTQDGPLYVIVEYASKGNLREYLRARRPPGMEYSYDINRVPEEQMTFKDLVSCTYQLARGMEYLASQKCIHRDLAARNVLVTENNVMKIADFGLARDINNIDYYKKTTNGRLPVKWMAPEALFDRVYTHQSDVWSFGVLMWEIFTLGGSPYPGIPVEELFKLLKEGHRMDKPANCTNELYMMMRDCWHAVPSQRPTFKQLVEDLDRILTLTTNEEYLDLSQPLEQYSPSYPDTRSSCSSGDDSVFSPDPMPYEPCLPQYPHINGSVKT

B1: rat anti-FGFR2 antibody FR2-10 (antibody, IgG2a, V domains shown)
VH: EVQLVESGGGLVQPGRSLKLSCVASGFRFNDFWMTWIRQAPGKGLEWVASITYTGDNTYYAGSVKGRITISRDNAKSTLYLQMNSLRSEDTATYYCTRDDYGGYSPYYMDAWGQGTSVTVSS
VL: DIQMTQSPSSLSAFLGDRVTITCRASQDIGNYLRWFQQKPGKSPRLMIYGATNLANGVPSRFSGSRSGSDYSLTINNLESEDMAIYYCLKHNEYPFTFGSGTKLEIKR
notes: Used as hybridoma culture supernatant in flow cytometry and as antibody purified from ascites elsewhere; also called rat FR2-10 antibody
binding result: no binding
